Laboratory results taken from a protein production outcome set (Wang et al. 2014).

Assay: label from the status in PepcDB records
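Note: failed if final PepcDB status was selected cloned or expressed and not failed if soluble or beyond.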

| Sequence | protein production |
| --- | --- |
| MFKLVFKQYKCKSTSPDLTEVVKIDDCVVKGNDQEKSDNNIVQRLSISNVESLQTMPGVKSPKDWRTYTLTNHPGIIVIRNPFSERGRRYWSARCLRDFPRTPNIVNLNERLFDESVRSDWWKQLNLCSDGVEFQRIKSAMRWTTFGYHHNWDTKIYDEEMQSPFPEDLSSLCGLFAQALGYADFKPEAAIVNYYPVGSTLSGHTDHSEPNKSAPLFSFSFGQTAIFLIGGRSLEEKPTAIYLQSGDVMIMSGESRLCYHAVPRIIKTQASATLSLIIEDVDNADIKTRTIDKDLFHDVGNPQFWEPFSRYMDDSRININIRQVLNPGDVKL | failed |
| MHRLRNLREDVSDGSLGHGGGGLMYDVVVVGAGPAGSMAAKTAAEQGLKVLLVEKRQEIGTPVRCAEGISRESIEKFFEVDKKWIAAEVTGAKIYAPNKTEIVMSEEMAGNEVGYVLERKIFDRHVARLAAKAGAEVYVKTAMVDFERKDGKVKVKLRRLGEDWEVETKILIGADGVESKIGRKAGIIKTLKLNEVESCAQYLMTGLDIDESYTYFYLGRELAPGGYAWIFPKGNGSANVGIGVLPKMAERTAKEYLDAFIEKEGIEGKIVEFVAGAVPVYGEIETAVADNIMLAGDAAYHADPITGGGIANALSAGYYAGKVAAEAVQKNDFSADFLRRYDELWKNDFGKKLRRNKKLQLKFIDMDDALLNKLAGAIAGKNLREMSVAAIVKELLKAHPKLLWDLKDLFLEHHHHHH | not failed |
| AFLNKHFAKKNHNISVDELSHALELTDKAELTEENNILEGIIRFGGETAKEVMTSRLDVVDLDIRTPFKDVIQCIIDNAYSRIPIYSGTRDNIKGVLYIKDLLPHLNKGDNFRWQSLIRPAYFVPETKMIDDLLRDFQANKIHIAIVVDEFGGTSGIVTMEDIIEEIVGEIHDEYDD | not failed |
| RVGIIVAAHGNSTASSMVEVATELLGSTPIAAVDMPLTVSPSDILECVAEKMKQVDEGEGVLMLVDMGSLAMLESRLEEKTGISIKTISNVTTSMVLDAVRKVNYLNLNLHAIYQSVTKDFIELWERQPAASGKK | failed |
| MDFHIRKATNSDAEAIQHVATTSWHHTYQDLIPSDVQDDFLKRFYNVETLHNRISATPFAVLEQADKVIGFANFIELEKGKSELAAFYLLPEVTQRGLGTELLEVGMTLFHVPLPMFVNVEKGNETAIHFYKAKGFVQVEEFTEDFYGYPLETIRFNLNHHAFEEE | not failed |
| MGLLFFHNDVTDRFNPFIHQQDVYVQIDRDGRHLSPGGTEYTLDGYNASGKKEEVTFFAGKELRKNAYLKVKAKGKYVETWEEVKFEDMPDSVQSKLKLEHHHHHH | not failed |
| MAESLITKKAIAGGLMELCQHKRFEKISIADITNICGLNRQTFYYHFTDKYDLLTWTYENDFFHCLADGITLENWDKHVLKMLESIKENADFYKNTVSADASILSFCFSKLTNSLFMDLFEKIDTNGAVNEADRVFYAEFFSYGCSGVLIKWITRGFKEAPETIANQLFRLAKDTEFLANSMYRENLEHHHHHH | not failed |
| MNHDIDIKKVRLNCFRQSKVPGEFMLQMRIPGGIVDAKYLSQIQEIAETWGNGTFHMGMRQTFNIPGIKYENIQAVNKFIENYLQEVEVDRCNCDMKVDENGYPTIGARNVMACIGNSHCIKANVDTKDMANKIEKLVFPSHYHIKVSVAGCPNDCAKGHFQDFGVIGQARMEYHEERCIGCGACVRACEHHATRVLSLNDKGLVDKDPCCCVGCGECVLACPASAWTRKPEKFYRIVIGGRTGKQTPRMGKTFINFATEEVVLGIFANWQKFSAWALDYKPEYLHGGHLIDRAGYHKFKEIILDGVELNPEALVADNIFWAETEYRSNFNVKPIKMHKTIESNRPLRLEHHHHHH | failed |
| MGLEQAVVDFFNHMGLLNLTVGNVVMIIVGLTLVYLAIRYEMEPLLLLPIGISAVLVNLPLSHMANWPLAPQLPPEIQENIFATISYLSQQYGPPGLFDLIYYLLIKTEVVPLLIFFGLGAMTDFGPMIADPKTALLGAAAQIGVFVAMLVALALGFNLKEAASIGIIGGADGPTTIYLTTKLAPHILSATAVAAYSYMSLVPLIQPPVIKALTTPEERRIRMEQLRPVSKREKILFPIASMIVIGLLVPSAAPLIGMLMIGNLFRESGVVQRLSKAAQEELMNIVTIFLGLGIGSTMRAESFLTPKTLMILALGVVAFASATAGGVLFGKIMMKISGGKINPMIGAAGVSAVPMSARVVQRLASEEDPGNFILMHAMGPNVAGVIGTAVVAGVFLSALG | failed |
| MPQPTVLLLARADLSPVGTEFTTGPIDAHDPFDSGRRTAFVDEQGIAAGIVEFGTALSVEAYPYTEMLVMHRGSVTLTSGTDSVTLSTGESAVIGRGTQVRIDAQPESLWAFCASTQASGPDKSGITALDRLALLTPSSPPDPSIMISPLPQCRSNNLFEDTASTLRIGVWDSTPYERISRPHKIHELMNLIEGRVVLSLENGSSLTVNTGDTVFVAQGAPCKWTSTGYVRKFYAVT | not failed |
| MLTTNASSKIFSKASTAELVGHTRKVHCLSWNPKGGLLGSGGVDCVARIWDVEKLQQKAELEGHTSSIEQLKWDPTANVFFVSASLDHKVLFWDLRARNSEPVASVETQGENINLAWSQDGVYCAVGDKDDNLSFIDVRKFDFFERFQFAEEVNEFKWSPSGPFFFMTLGKEVLVFRWPTMEQQLRLQVHADRCYCLEFDRSGRYFALGGADSIISLWETEYMLCTWTVDRLEYPIRTISFSHDGQFIAAGSEDSVIDISDILNGRQTYALGVKGATNVVAWHPSRHLLAYATEEEYSRDGVAIHLYGTISKDNI | failed |
| FSKTQRWAEPGEPICVVCGRYGEYICDKTDEDVCSLECKAKHLLQVKEKEEKS | not failed |
| MDSKDESSHVWPTSAEHEQNAAQVHFVPDTGTVAQIVYTDDQVRPPQQVVYTADGASYTSVDGPEHTLVYIHPVEAAQTLFTDPGQVAYVQQDATAQQASLPVHNQVLPSIESVDGSDPLATLQTPLGRLEAKEEEDEDEDEDTEEDEEEDGEDTDLDDWEPDPPRPFDPHDLWCEECNNAHASVCPKHGPLHPIPNRPVLTRARASLPLVLYIDRFLGGVFSKRRIPKRTQFGPVEGPLVRGSELKDCYIHLKVSLDKGDRKERDLHEDLWFELSDETLCNWMMFVRPAQNHLEQNLVAYQYGHHVYYTTIKNVEPKQELKVWYAASYAEFVNQKIHDISEEERKVLREQEKNWPCYECNRRFISSEQLQQHLNSHDEKLDVFSRTRGRGRGRGKRRFGPGRRPGRPPKFIRLEITSENGEKSDDGTQDLLHFPTKEQFDEAEPATLNGLDQPEQTTIPIPQLPQETQSSLEHEPETHTLHLQPQHEESVVPTQSTLTADDMRRAKRIRLELQNAALQHLFIRKSFRPFKCLQCGKAFREKDKLDQHLRFHGREGNCPLTCDLCNKGFISSTSLESHMKLHSDQKTYSCIFCPESFDRLDLLKDHVAIHINDGYFTCPTCKKRFPDFIQVKKHVRSFHSEKIYQCTECDKAFCRPDKLRLHMLRHSDRKDFLCSTCGKQFKRKDKLREHMQRMHNPEREAKKADRISRSKTFKPRITSTDYDSFTFKCRLCMMGFRRRGMLVNHLSKRHPDMKIEEVPELTLPIIKPNRDYFCQYCDKVYKSASKRKAHILKNHPGAELPPSIRKLRPAGPGEPDPMLSTHTQLTGTIATPPVCCPHCSKQYSSKTKMVQHIRKKHPEFAQLSNTIHTPLTTAVISATPAVLTTDSATGETVVTTDLLTQAMTELSQTLTTDYRTPQGDYQRIQYIPVSQSASGLQQPQHIQLQVVQVASATSPHQSQQSTVDVGQLHDPQPYPQHAIQVQHIQVSEPTASAPSSAQVSGQPLSPSAQQAQQGLSPSHIQGSSSTQGQALQQQQQQQQNSSVQHTYLPSAWNSFRGYSSEIQMMTLPPGQFVITDSGVATPVTTGQVKAVTSGHYVLSESQSELEEKQTSALSGGVQVEPPAHSDSLDPQTNSQQQTTQYIITTTTNGNGSSEVHITKP | failed |
| MDGTPGHNAINRLQLVATLAEREVMRYTPAGVPIVNCLLSYSGQAMEAQAARQVEFSIEALGAGKMASVLDRIAPGTVLECVGFLARKHRSSKALVFHISGCNVFVKDLEHHHHHH | failed |
| MPDLMHSELTMSGPEQSLLAGALLGAGLPADAHRHLELAGRDYQSEALAEQHLREAHLLAPDHAAVLIGLYRFYFYKGRLGEALEVAQACLCKAARDNGLASDWRKVRRGDAEFSSYSAVLPRFYLFALKAYAYLQMRLGQLDEGHAAVEKLLELDPTDKVGAAVLLDVWRRIGLEHHHHHH | not failed |
